Source: patent US20230391883A1 (BEIGENE SWITZERLAND, published 2023)
Positions count from the first letter of the chain named. Blank lines part the entries; values can stand above or below the binder they belong to.

Legend:
[1] = biological target: T1, TIGIT-huIgG1 (human, UniProt Q495A1 22-141); assay: SPR (BIAcore T-200); human Fc-tagged TIGIT captured by anti-human IgG, antibody as analyte
T1 construct: also called Human Fc-tagged TIGIT; TIGIT-huIgG1 fusion protein
T1 sequence: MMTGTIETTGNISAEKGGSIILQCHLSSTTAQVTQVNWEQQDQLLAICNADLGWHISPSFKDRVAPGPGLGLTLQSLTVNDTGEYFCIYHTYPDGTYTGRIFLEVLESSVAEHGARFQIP
Description: (§1) Briefly, anti-human IgG antibody was immobilized on an activated CM5 biosensor chip (Cat. No.: BR100530, GE Life Sciences). Human Fc-tagged TIGIT was flowed over the chip surface and captured by anti-human IgG antibody. Then a serial dilution (0.12 nM to 10 nM) of purified murine antibodies were flowed over the chip surface and changes in surface plasmon resonance signals were analyzed to calculate the association rates (kₒₙ) and dissociation rates (koff) by using the one-to-one Langmuir binding model (BIA Evaluation Software, GE Life Sciences). The equilibrium dissociation constant (KD) was calculated as the ratio koff/kₒₙ.

[2] = biological target: T1, TIGIT-huIgG1; assay: SPR (BIAcore T-200); human Fc-tagged TIGIT captured by anti-human IgG, antibody as analyte; column head prints nM, koff/kon gives M
Description: as §1

[3] = biological target: T2, full-length human TIGIT on cells (human, UniProt Q495A1 22-244); assay: flow cytometry on living NK92mi/TIGIT cells, goat anti-human IgG detection; Test 1
T2 construct: Used for engineered cells (NK92mi/TIGIT, NK92MI/TIGIT-DNAM-1, Jurkat/TIGIT) and for TIGIT on human blood cells; also called native TIGIT; huTIGIT
T2 sequence: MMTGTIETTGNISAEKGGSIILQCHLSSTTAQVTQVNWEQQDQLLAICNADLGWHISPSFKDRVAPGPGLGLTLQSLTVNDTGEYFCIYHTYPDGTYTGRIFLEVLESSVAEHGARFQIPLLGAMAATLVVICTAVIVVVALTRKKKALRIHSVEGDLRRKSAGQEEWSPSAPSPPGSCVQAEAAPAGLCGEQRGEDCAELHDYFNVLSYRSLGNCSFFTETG
Description: (§2) To evaluate the binding activity of anti-TIGIT antibodies to native TIGIT on living cells, NK92mi cells were engineered to over-express human TIGIT. Living NK92mi/TIGIT cells were seeded in 96-well plate and were incubated with a series of dilutions of anti-TIGIT antibodies. Goat anti-Human IgG was used as secondary antibody to detect antibody binding to the cell surface. EC₅₀ values for dose-dependent binding to human native TIGIT were determined by fitting the dose-response data to the four-parameter logistic model with GraphPad Prism. As show in FIG. 4A-B and Table 6.

[4] = biological target: T3, human TIGIT (form in the assay not stated) (human, UniProt Q495A1 22-141, limits assumed); assay: SPR; antibody captured on anti-human Fc surface, TIGIT analyte not named; Test 1
T3 construct: whole entry named
T3 sequence: T1 sequence
Description: (§3) For affinity determination, antibodies were captured by anti-human Fc surface, and used in the affinity-assay based on surface plasmon resonance (SPR) technology.

[5] = biological target: T2, full-length human TIGIT on cells; assay: flow cytometry on living NK92mi/TIGIT cells, goat anti-human IgG detection; Test 2
Description: as §2

[6] = biological target: T3, human TIGIT (form in the assay not …); assay: SPR; antibody captured on anti-human Fc surface, TIGIT analyte not named; Test 2
Description: as §3

[7] = biological target: T3, human TIGIT (form in the assay not …); assay: SPR; antibody captured on anti-human Fc surface, TIGIT analyte not named; mean of Tests 1 and 2
Description: as §3

[8] = biological target: T4, humanized TIGIT of humanized TIGIT knock-in mice, on CD3+ splenocytes; assay: TIGIT receptor occupancy assay on CD3+ splenocytes from humanized TIGIT knock-in mice
T4 chain: T1 sequence

[9] = biological target: T2, full-length human TIGIT on cells; assay: TIGIT receptor occupancy assay on CD3+ human peripheral blood mononuclear cells; CD3+ human peripheral blood mononuclear cells
[10] = biological target: T5, TIGIT-his (human, UniProt Q495A1 22-141); assay: SPR; antibody immobilized on CM5 chip, TIGIT-his as analyte, HBS pH 6.0; column head prints nM, koff/kon gives M
T5 construct: also called human TIGIT; not shown: his tag
T5 sequence: T1 sequence

[11] = biological target: T6, TIGIT-mIgG2a (human; mouse, UniProt Q495A1 22-141); assay: flow cytometry; blockade of soluble TIGIT binding to PVR-L2 on HEK293/PVR-L2 cells
T6 construct: also called soluble TIGIT; TIGIT-mIgG2a fusion protein
T6 sequence: T1 sequence
Description: (§4) To determine whether anti-TIGIT antibodies could block TIGIT-PVR and TIGIT-PVR-L2 interactions, HEK293 cells were engineered to express high levels of PVR or PVR-L2. The resultant cell lines were named HEK293/PVR and HEK293/PVR-L2, respectively. […] The blockade of TIGIT-ligand interaction was quantitatively measured by adding serially diluted anti-TIGIT antibodies.

[12] = biological target: T5, TIGIT-his; assay: SPR; antibody immobilized on CM5 chip, TIGIT-his as analyte, HBS pH 7.4; column head prints nM, koff/kon gives M
[13] = biological target: T5, TIGIT-his; assay: SPR; antibody immobilized on CM5 chip, TIGIT-his as analyte, HBS pH 6.0
[14] = biological target: T6, TIGIT-mIgG2a; assay: flow cytometry; blockade of soluble TIGIT binding to PVR on HEK293/PVR cells
Description: as §4

[15] = biological target: T5, TIGIT-his; assay: SPR; antibody immobilized on CM5 chip, TIGIT-his as analyte, HBS pH 7.4
[16] = biological target: T3, human TIGIT (form in the assay not …); assay: SPR; antibody captured on anti-human Fc surface, TIGIT analyte not named; Test 1; Test 1
Description: as §3

B2: ch1217 (antibody, V domains shown)
VH: EVKLVESGGGLVQPGGSLKLSCATSGFTFSDYYMYWIRQTPEKRLEWVAYITKGGGSTYYPDTVKGRFTISRDNAKNTLYLQVSRLKSEDTAIYYCARQTNYDFTMDYWGQGTSVTVSS
VL: DIVMTQSHKFMSTSVGDRVSIICKASQDVGTSVAWYQQKPGQSPNLLIYWASARHTGVPDRFTGSGSGTDFTLTISNVQSEDLADYFCQQYSSYPLTFGAGTKLELK
notes: Chimeric: mu1217 variable domains fused to human IgG1mf/kappa constant regions; not shown: human kappa light chain constant region
EC50 [3]: 0.1 µg/mL
Kd [4]: 0.283 nM
koff [4]: 0.000443 s⁻¹
kon [4]: 1.56e+06 M⁻¹ s⁻¹

B3: hu1217-1-1 (antibody, V domains shown)
VH: EVQLVESGGGLVQPGGSLRLSCATSGFTFSDYYMYWIRQAPGKGLEWVAYITKGGGSTYYPDSVKGRFTISRDNAKNTLYLQMNSLRAEDTAVYYCARQTNYDFTMDYWGQGTLVTVSS
VL: EIVMTQSPATLSVSPGERATLSCKASQDVGTSVAWYQQKPGQAPRLLIYWASARHTGVPARFSGSGSGTEFTLTISSLQSEDFAVYYCQQYSSYPLTFGGGTKVEIK
notes: Full-length human IgG1mf/kappa format; not shown: human kappa light chain constant region
EC50 [5]: 0.084 µg/mL
EC50 [3]: 0.114 µg/mL
Kd [4]: 0.309 nM
koff [4]: 0.000448 s⁻¹
kon [4]: 1.45e+06 M⁻¹ s⁻¹
Kd [6]: 0.52 nM
koff [6]: 0.000694 s⁻¹
kon [6]: 1.33e+06 M⁻¹ s⁻¹
Kd [7]: 0.415 nM

B4: hu1217-2-2 (as named in Examples 12 to 14, Fc format not stated) (antibody, V domains shown)
VH: B3 VH with T24A, I37V
VL: B3 VL with V58I
notes: kept apart from m7 and m8 for that reason; also called Antibody hu1217-2-2
EC50 [8]: 0.0488 µg/mL
EC50 [9]: 0.0632 µg/mL

The remaining lines, values ahead:

koff [1]: 3.96e-05 s⁻¹
kon [1]: 4.33e+06 M⁻¹ s⁻¹
Kd [2]: 0.00915 nM
B1: mu1217 (antibody, V domains shown)
VH: B2 VH
VL: B2 VL
notes: Purified murine hybridoma antibody; also called murine anti-TIGIT mAb mu1217

Kd [10]: 0.0299 nM
IC50 [11]: 0.25 µg/mL
Kd [12]: 0.219 nM
koff [13]: 7.6e-05 s⁻¹
kon [13]: 2.54e+06 M⁻¹ s⁻¹
IC50 [14]: 0.64 µg/mL
koff [15]: 9.53e-05 s⁻¹
kon [15]: 434000 M⁻¹ s⁻¹
B5: hu1217-2-2/IgG1wt (antibody, V domains shown)
VH: B3 VH with T24A, I37V
VL: B3 VL with V58I
notes: Humanized version with a wild-type IgG1 Fc region and the same VH and VL as hu1217-2-2/IgG1mf

EC50 [5]: 0.068 µg/mL
IC50 [11]: 0.18 µg/mL
IC50 [14]: 0.55 µg/mL
kon [16]: 1.8e+06 M⁻¹ s⁻¹
Kd [4]: 0.127 nM
koff [4]: 0.000229 s⁻¹
Kd [6]: 0.404 nM
koff [6]: 0.000608 s⁻¹
kon [6]: 1.5e+06 M⁻¹ s⁻¹
Kd [7]: 0.266 nM
B6: hu1217-2-2/IgG1mf (antibody, V domains shown)
VH: B3 VH with T24A, I37V
VL: B3 VL with V58I
notes: not shown: human kappa light chain constant region
